Experiment [1] concerns the target PKA type I regulatory subunit RIα, in H295R adrenal cells (human (endogenous in H295R)) (UniProt P10644).
Experiment [2] addresses PKA type II regulatory subunit RIIα, in H295R adrenal cells (UniProt P13861).
UniProt P13861, sequence (P13861 whole entry, stated change not applied): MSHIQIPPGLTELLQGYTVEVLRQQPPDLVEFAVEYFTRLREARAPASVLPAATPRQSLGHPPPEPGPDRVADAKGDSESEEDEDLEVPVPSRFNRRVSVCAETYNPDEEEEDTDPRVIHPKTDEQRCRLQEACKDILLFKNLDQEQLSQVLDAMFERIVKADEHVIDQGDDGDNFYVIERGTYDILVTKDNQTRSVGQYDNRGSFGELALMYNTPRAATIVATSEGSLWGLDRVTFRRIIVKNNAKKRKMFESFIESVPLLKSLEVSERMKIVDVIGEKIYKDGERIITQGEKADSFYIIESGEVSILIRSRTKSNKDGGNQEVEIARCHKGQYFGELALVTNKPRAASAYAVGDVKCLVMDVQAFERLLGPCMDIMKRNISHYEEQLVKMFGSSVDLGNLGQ

UniProt P10644, sequence (P10644 whole entry, stated change not applied): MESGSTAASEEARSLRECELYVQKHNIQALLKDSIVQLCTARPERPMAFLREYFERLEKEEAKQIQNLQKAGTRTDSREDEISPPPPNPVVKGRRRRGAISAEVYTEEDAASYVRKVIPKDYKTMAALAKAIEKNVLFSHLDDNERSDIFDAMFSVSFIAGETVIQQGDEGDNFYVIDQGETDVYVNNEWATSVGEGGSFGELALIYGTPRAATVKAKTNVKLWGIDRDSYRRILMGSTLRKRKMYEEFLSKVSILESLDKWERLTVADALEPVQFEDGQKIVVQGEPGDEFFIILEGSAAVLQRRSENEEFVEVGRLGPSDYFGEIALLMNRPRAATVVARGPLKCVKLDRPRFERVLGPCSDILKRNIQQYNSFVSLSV

“V5-tagged PKAc-W196R, in H295R adrenal cells (enzyme)” had a residence of photoactivatable-mCherry PKAc at the site of photoactivation after 12.5 s in H295R cells with smAKAP-GFP and RIα-iRFP in experiment [1] of 40%. Moreover, in experiment [2], the residence of photoactivatable-mCherry PKAc at the site of photoactivation after 12.5 s in H295R cells with AKAP79-YFP and RIIα-iRFP was found to be 30%.

The record behind these values is article PMC10881042.
